Laboratory results reported in patent publication US20190233477A1.

Key:
[1] = molecular target: NRPS Pc21g12630 protein ChyA (Penicillium chrysogenum)
[2] = molecular target: NRPS N-(5-amino-5-carboxypentanoyl)-L-cysteinyl-D-valine synthase PcbAB (Penicillium chrysogenum)
[3] = molecular target: NRPS Roquefortine/meleagrin synthesis protein A RoqA (Penicillium chrysogenum)

MbtH-like protein Tcp13 from the teicoplanin biosynthesis cluster from Actinoplanes teichomyceticus, sequence (chain): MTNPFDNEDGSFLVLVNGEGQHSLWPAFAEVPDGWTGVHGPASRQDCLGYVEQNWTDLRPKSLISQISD
MbtH-like homologue identified in the Veg biosynthesis cluster obtainable from an uncultured soil bacterium, called VEG8, sequence (chain): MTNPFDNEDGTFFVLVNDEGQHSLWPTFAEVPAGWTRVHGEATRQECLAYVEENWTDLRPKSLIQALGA

MbtH-like homologue identified in the Teg biosynthesis cluster obtainable from an uncultured soil bacterium, called TEG
relative productivity of Chrysogenin 12 (chrysogenin cluster), day 5, strain DS47274, transformant 11-5, LC/MS, untransformed strain set to 1.0 (fold of the untransformed strain (1.0)) [1]: 266
relative productivity of LLD-ACV (penicillin cluster), day 5, strain DS47274, transformant 11-5, LC/MS, untransformed strain set to 1.0 (fold of the untransformed strain (1.0)) [2]: 10.9
relative productivity of HTD (roquefortine cluster), day 2, strain DS47274, transformant 11-5, LC/MS, untransformed strain set to 1.0 (fold of the untransformed strain (1.0)) [3]: 9.35

MbtH-like homologue identified in the Veg biosynthesis cluster obtainable from an uncultured soil bacterium, called VEG8
relative productivity of Chrysogenin 12 (chrysogenin cluster), day 5, strain DS47274, transformant 12-4, LC/MS, untransformed strain set to 1.0 (fold of the untransformed strain (1.0)) [1]: 189
relative productivity of LLD-ACV (penicillin cluster), day 5, strain DS47274, transformant 12-4, LC/MS, untransformed strain set to 1.0 (fold of the untransformed strain (1.0)) [2]: 2.32
relative productivity of HTD (roquefortine cluster), day 2, strain DS47274, transformant 12-4, LC/MS, untransformed strain set to 1.0 (fold of the untransformed strain (1.0)) [3]: 2.9

MbtH-like protein Tcp13 from the teicoplanin biosynthesis cluster from Actinoplanes teichomyceticus
relative productivity of Chrysogenin 12 (chrysogenin cluster), day 5, strain DS47274, transformant 10-5, LC/MS, untransformed strain set to 1.0 (fold of the untransformed strain (1.0)) [1]: 465
relative productivity of LLD-ACV (penicillin cluster), day 5, strain DS47274, transformant 10-2, LC/MS, untransformed strain set to 1.0 (fold of the untransformed strain (1.0)) [2]: 16.1
relative productivity of HTD (roquefortine cluster), day 2, strain DS47274, transformant 10-2, LC/MS, untransformed strain set to 1.0 (fold of the untransformed strain (1.0)) [3]: 2.64

MbtH-like homologue SCO0489 from the calcium dependent antibiotic (CDA) biosynthesis cluster from Streptomyces coelicolor, called CDAI
relative productivity of Chrysogenin 12 (chrysogenin cluster), day 5, strain DS47274, transformant 9-4, LC/MS, untransformed strain set to 1.0 (fold of the untransformed strain (1.0)) [1]: 413
relative productivity of LLD-ACV (penicillin cluster), day 5, strain DS47274, transformant 9-5, LC/MS, untransformed strain set to 1.0 (fold of the untransformed strain (1.0)) [2]: 12.5
relative productivity of HTD (roquefortine cluster), day 2, strain DS47274, transformant 9-5, LC/MS, untransformed strain set to 1.0 (fold of the untransformed strain (1.0)) [3]: 4.48

MbtH-like homologue from the complestatine biosynthesis cluster from Streptomyces lavendulae, called COM
relative productivity of Chrysogenin 12 (chrysogenin cluster), day 5, strain DS47274, transformant 7-3, LC/MS, untransformed strain set to 1.0 (fold of the untransformed strain (1.0)) [1]: 317
relative productivity of LLD-ACV (penicillin cluster), day 5, strain DS47274, transformant 7-3, LC/MS, untransformed strain set to 1.0 (fold of the untransformed strain (1.0)) [2]: 22.7
relative productivity of HTD (roquefortine cluster), day 2, strain DS47274, transformant 8-4, LC/MS, untransformed strain set to 1.0 (fold of the untransformed strain (1.0)) [3]: 2.32
